Laboratory results as given in patent US20210269525A1 (BIOCYTOGEN PHARMACEUTICALS BEIJING, published 2021).
Numbering of substitutions follows the chain as printed. One block for each binder: values may come before it.

What was measured:
[1] = target: T1, human CD3e (T-cell surface glycoprotein CD3 epsilon chain) (human, UniProt P07766 23-207); experiment: flow cytometry, human PBMC, antibody 10 µg/mL, anti-human IgG Fc-Alexa Fluor647 (1:500), anti-hTcRβ-PerCP (1:30)
T1 construct: Target of the anti-hCD3e antibodies on human PBMC, Jurkat cells and cells expressing human CD3e; on T cells it is part of the CD3/TCR complex; also called hCD3e; CD3e on human PBMC
Description: (§1) PBMC cells were collected from a human subject. After being thawed, the cells were cultured for 3-4 hours. The medium was then discarded, and the cells were resuspended in phosphate-buffered saline (PBS). The cell concentration was then adjusted to 2×10⁶/25 μl PBS.
A 96-well plate was prepared. 25 ul of cell suspension was added to each well. Anti-hCD3e antibodies with different combinations of humanized 1B1 heavy chain variants and humanized 1B1 light chain variants were diluted to 20 ug/ml (2×) in PBS, and were added to the 96-well plate. The cells and the antibodies were incubated. After centrifuge, the residues were discarded. The samples were washed again. 25 ul of PBS was then added to each well to resuspend cells.
(§2) Anti-human IgG Fc-Alexa Fluror647 (1:500) and anit-hTcRβ PerCP (1:30) were then added to each well. The cells and the antibodies were incubated and then the cells were washed again by PBS. 300 ul of PBS was then added to each well to resuspend the cells. FACS was performed.

[2] = target: T1, human CD3e (T-cell surface glycoprotein …); experiment: flow cytometry, human PBMC, antibody 0.1 µg/mL, anti-human IgG Fc-Alexa Fluor647 (1:500), anti-hTcRβ-PerCP (1:30)
Description: as §1
(§3) A 96-well plate was prepared. 25 ul of cell suspension was added to each well. […] The cells and the antibodies were incubated. After centrifuge, the residues were discarded. The samples were washed again. 25 ul of PBS was then added to each well to resuspend cells.
as §2

[3] = target: T1, human CD3e (T-cell surface glycoprotein …); experiment: flow cytometry, human PBMC, antibody 1 µg/mL, anti-human IgG Fc-Alexa Fluor647 (1:500), anti-hTcRβ-PerCP (1:30)
Description: as §1, §3, §2

[4] = target: T2, Histidine-tagged human CD3e protein (human, UniProt P07766 23-126); experiment: SPR (Biacore), human CD3e
T2 construct: also called hCD3e-His; not shown: His tag

[5] = target: T1, human CD3e (T-cell surface glycoprotein …); experiment: cell-based or functional assay
[6] = target: T3, monkey CD3e (Macaca fascicularis) on PBMC (Macaca fascicularis, UniProt Q95LI5 22-198); experiment: flow cytometry, Macaca fascicularis PBMC, antibody concentration not given, anti-human IgG Fc-Alexa Fluor647 (1:500), anti-hTcRβ-PerCP (1:30)
T3 construct: Target on PBMC from Macaca fascicularis; also called mfCD3e; monkey PBMC
Description: A 96-well plate was prepared. 25 ul of cell suspension was added to each well. Anti-hCD3 antibodies were added to the 96-well plate. The cells and the antibodies were incubated for 15 minutes at 4° C. 185 ul PBS was then added to each well. After centrifuge at 2000 rpm for 5 minutes, the medium was discarded. The samples were washed again. 25 ul of PBS was then added to resuspend cells.
Anti-human IgG Fc-Alexa Fluror647 (1:500) and anti-hTcRβ PerCP (1:30) were then added to each well. The cells and the antibodies were incubated for 15 minutes at 4° C. 185 ul PBS was then added to each well. After centrifuge, the residues were discarded. The samples were washed again. 25 ul of PBS was then added to resuspend cells. […] In contrast, anti-hTcRβ PerCP cannot bind to monkey PBMC.

[7] = target: T4, Cynomolgus CD3 epsilon Protein, His Tag (Acrobiosystems, Cat #CDE-05226) (cynomolgus (Macaca fascicularis), UniProt Q95LI5 22-117); experiment: SPR (Biacore), cynomolgus CD3e His tag
T4 construct: also called monkey CD3e; not shown: His tag
T4 sequence: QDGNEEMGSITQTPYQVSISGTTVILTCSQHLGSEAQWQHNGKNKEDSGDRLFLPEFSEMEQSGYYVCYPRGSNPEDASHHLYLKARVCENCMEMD
Description: The binding affinity of the anti-hCD3e antibodies with monkey CD3e (Cynomolgus CD3 epsilon Protein (SEQ ID NO: 39 AA Gln 22-Asp 117), His Tag, Acrobiosystems, Cat #CDE-05226) were also measured using surface plasmon resonance (SPR) using Biacore (Biacore, INC, Piscataway N.J.) by the methods as described in the examples.

B2: 1B1-H1K3-IgG1-LALA (antibody, V domains shown)
VH: QVQLVQSGAEVKKPGASVKVSCKASGYTFTSYWMHWVRQAPGQGLEWIGNIYPDSGTTNYGEKFKTRVTLTVDTSTSTAYMELSSLRSEDTAVYYCTRDTSGQYYFDYWGQGTLVTVSS
VL: DIVMTQSPDSLAVSAGERVTMNCKSSQSLLNSRTRKNYLAWYQHKPGQSPKLLIYWASTRESGVPDRFSGSGSGTDFTLTISSVQAEDVAVYYCVQSFSLRAFGGGTKLEIK
notes: Humanized; human IgG1 with LALA mutations; also called H1K3 (humanized 1B1)
upper left quadrant, percent of cells AF647+ / hTcRβ-PerCP- [1]: 10.5%
upper right quadrant, percent of cells AF647+ / hTcRβ-PerCP+ [1]: 60%
upper left quadrant, percent of cells AF647+ / hTcRβ-PerCP- [2]: 13.9%
upper right quadrant, percent of cells AF647+ / hTcRβ-PerCP+ [2]: 50%
upper left quadrant, percent of cells AF647+ / hTcRβ-PerCP- [3]: 11%
upper right quadrant, percent of cells AF647+ / hTcRβ-PerCP+ [3]: 58.6%
Kd [4]: 3.28 nM
koff [4]: 0.00051 s⁻¹
kon [4]: 155000 M⁻¹ s⁻¹
Kd [7]: 4.39 nM
koff [7]: 0.000739 s⁻¹
kon [7]: 169000 M⁻¹ s⁻¹
EC50, luciferase of Jurkat-Luc-NFAT cells; antibody from supernatant [5]: > 6.94 µg/mL
upper left quadrant, percent of cells AF647+ / hTcRβ-PerCP- [6]: 83.3%
upper right quadrant, percent of cells AF647+ / hTcRβ-PerCP+ [6]: 13.6%

B3: 1B1-H1K1-IgG1-LALA (antibody, V domains shown)
VH: B2 VH
VL: B2 VL with V19A, V84L, L109V
notes: Humanized; human IgG1 with LALA mutations; also called H1K1 (humanized 1B1)
upper left quadrant, percent of cells AF647+ / hTcRβ-PerCP- [1]: 8.68%
upper right quadrant, percent of cells AF647+ / hTcRβ-PerCP+ [1]: 61.6%
upper left quadrant, percent of cells AF647+ / hTcRβ-PerCP- [2]: 11.9%
upper right quadrant, percent of cells AF647+ / hTcRβ-PerCP+ [2]: 54.8%
upper left quadrant, percent of cells AF647+ / hTcRβ-PerCP- [3]: 12%
upper right quadrant, percent of cells AF647+ / hTcRβ-PerCP+ [3]: 58%
Kd [4]: 1.42 nM
koff [4]: 0.000621 s⁻¹
kon [4]: 438000 M⁻¹ s⁻¹
Kd [7]: 9.51 nM
koff [7]: 0.000869 s⁻¹
kon [7]: 91400 M⁻¹ s⁻¹
EC50, luciferase of Jurkat-Luc-NFAT cells; antibody from supernatant [5]: 1.42 µg/mL
upper left quadrant, percent of cells AF647+ / hTcRβ-PerCP- [6]: 69.5%
upper right quadrant, percent of cells AF647+ / hTcRβ-PerCP+ [6]: 26.2%

Now those with a lower Kd [4], led by results:

upper left quadrant, percent of cells AF647+ / hTcRβ-PerCP- [1]: 7.75%
upper right quadrant, percent of cells AF647+ / hTcRβ-PerCP+ [1]: 65.2%
upper left quadrant, percent of cells AF647+ / hTcRβ-PerCP- [2]: 11.8%
upper right quadrant, percent of cells AF647+ / hTcRβ-PerCP+ [2]: 55.5%
upper left quadrant, percent of cells AF647+ / hTcRβ-PerCP- [3]: 11%
upper right quadrant, percent of cells AF647+ / hTcRβ-PerCP+ [3]: 61.2%
Kd [4]: 1.37 nM
koff [4]: 0.000914 s⁻¹
kon [4]: 665000 M⁻¹ s⁻¹
EC50, luciferase of Jurkat-Luc-NFAT cells; antibody from supernatant [5]: > 3.06 µg/mL
upper left quadrant, percent of cells AF647+ / hTcRβ-PerCP- [6]: 78.8%
upper right quadrant, percent of cells AF647+ / hTcRβ-PerCP+ [6]: 18.3%
B1: 1B1-H3K1-IgG1-LALA (antibody, V domains shown)
VH: B2 VH with V20L, A40R, P41H
VL: B2 VL with V19A, V84L, L109V
notes: Humanized; human IgG1 with LALA mutations; also called H3K1 (humanized 1B1)

upper left quadrant, percent of cells AF647+ / hTcRβ-PerCP- [1]: 8.51%
upper right quadrant, percent of cells AF647+ / hTcRβ-PerCP+ [1]: 64.1%
upper left quadrant, percent of cells AF647+ / hTcRβ-PerCP- [2]: 13.1%
upper right quadrant, percent of cells AF647+ / hTcRβ-PerCP+ [2]: 54.1%
upper left quadrant, percent of cells AF647+ / hTcRβ-PerCP- [3]: 10.2%
upper right quadrant, percent of cells AF647+ / hTcRβ-PerCP+ [3]: 64.4%
Kd [4]: 0.809 nM
koff [4]: 0.000653 s⁻¹
kon [4]: 807000 M⁻¹ s⁻¹
EC50, luciferase of Jurkat-Luc-NFAT cells; antibody from supernatant [5]: 2.4 µg/mL
upper left quadrant, percent of cells AF647+ / hTcRβ-PerCP- [6]: 78.5%
upper right quadrant, percent of cells AF647+ / hTcRβ-PerCP+ [6]: 18.3%
B4: 1B1-H4K1-IgG1-LALA (antibody, V domains shown)
VH: B2 VH with K12V, V20L, A40R, P41H, V68G
VL: B2 VL with V19A, V84L, L109V
notes: Humanized; human IgG1 with LALA mutations; also called H4K1 (humanized 1B1)

upper left quadrant, percent of cells AF647+ / hTcRβ-PerCP- [1]: 11%
upper right quadrant, percent of cells AF647+ / hTcRβ-PerCP+ [1]: 59.7%
upper left quadrant, percent of cells AF647+ / hTcRβ-PerCP- [2]: 12.6%
upper right quadrant, percent of cells AF647+ / hTcRβ-PerCP+ [2]: 54%
upper left quadrant, percent of cells AF647+ / hTcRβ-PerCP- [3]: 10.4%
upper right quadrant, percent of cells AF647+ / hTcRβ-PerCP+ [3]: 61.7%
Kd [4]: 0.959 nM
koff [4]: 0.000614 s⁻¹
kon [4]: 640000 M⁻¹ s⁻¹
EC50, luciferase of Jurkat-Luc-NFAT cells; antibody from supernatant [5]: > 3 µg/mL
upper left quadrant, percent of cells AF647+ / hTcRβ-PerCP- [6]: 73.2%
upper right quadrant, percent of cells AF647+ / hTcRβ-PerCP+ [6]: 24.4%
B5: 1B1-H4K2-IgG1-LALA (antibody, V domains shown)
VH: B2 VH with K12V, V20L, A40R, P41H, V68G
VL: B2 VL with V84L, L109V
notes: Humanized; human IgG1 with LALA mutations; also called H4K2 (humanized 1B1)
